Data published in a protein production outcome set (Wang et al. 2014).

Assay: label from the status in PepcDB records

Row | Sequence | protein production
1 | MDFQAVTDELKTWTKARVMPGFSVALLTGKTVQTAVSGEAQWFPQPAPLQPHMLYDVASLTKVIGTTTVFLQAWDQGLVSPDMPLHRFLPDFPHTTTFRQALTHTSGLEGYIPHRNALPAPALKQALMTQLTVTEEVDRQVVYRDVNLLLVGWALEQVYHQPIQTLITRQVIQPLALPQATFQPDSQQCVPTTYSPAVGLRQGVVHDPKSAILGKHSGAAGLFASLADLVTFTEYFFGNRQSASWPAHAVDLTQDWTKHHLGRSLGWDLRRDGQGRLWLYHTGYTGTFWLIQPDDQLALVVLTNRVHPQPNPAFLARRDALIARFLSDFKTMPAV | failed
2 | VLMDEGAVLTLAADLSSATLDISKQWSNVFNILRENDFEPKFLCEVKLAFKCDGEIKTFSDLQSLRKFASQKSSMKELLKDVLPQKE | not failed
3 | MSLYEWLNALPKAELHLHLEGTLEPELLFALAERNRIALPWNDVETLRKAYAFNNLQEFLDLYYAGADVLRTEQDFYDLTWAYLQKCKAQNVVHVEPFFDPQTHTDRGIPFEVVLAGIRAALRDGEKLLGIRHGLILSFLRHLSEEQAQKTLDQALPFRDAFIAVGLDSSEVGHPPSKFQRVFDRARSEGFLTVAHAGEEGPPEYIWEALDLLKVERIDHGVRAFEDERLMRRLIDEQIPLTVCPLSNTKLCVFDDMSQHTILDMLERGVKVTVNSDDPAYFGGYVTENFHALQQSLGMTEEQARRLAQNSLDARLVKEGHHHHHH | not failed
4 | MAINIIEYNRSYKEELIEFILSIQKNEFNIKIDRDDQPDLENIEHNYLNSGGQFWLAINNHQNIVGTIGLIRLDNNMSALKKMFVDKGYRNLKIGKKLLDKVIMTCKEQNIDGIYLGTIDKFISAQYFYSNNGFREIKRGDLPSSFPKLDVDNRFYYRNLKD | not failed
5 | MRTLAVISAGLSTPSSTRQIADSISEAVTAAVSARGEALSVSTIELSELIPDLMTAMTTRVHTTKLEEITSALSASDGLVVATPVFKASYTGLFKMFFDILDTDALTGMPTIIAATAGSARHSLVLDYALRPLLSYMRAVVVPTGVFAATEDFGGPEGAEFNKRIARAAGELASLIVEESGNVGLEHHHHHH | failed
6 | MTFKQVADDWLKQYANDVKVSSVRAREKAIQHAIERFNTKPIQTIKKHDYQRFVDDISAQYSKNYVDSIVASTNMIFKYAYDTRLIKAMPSEGIKRPKKKVSVELEHHHHHH | not failed
7 | RDSLFNDPNAPVLGNPEGDVTVVEFFDYNCPYCRRAMAEVQGLVDADPNVRLVYREWPILGEGSDFAARAALAARQQGKYEAFHWALMGMSGKANETGVLRIAREVGLDTEQLQRDMEAPEVTAHIAQSMALAQKLGFNGTPSFVVEDALVPGFVEQSQLQDAVDRARKAA | not failed
8 | MVETGHHHQHPPAPAAAGHPPVPSMAMARNMGTTWPPAEQLHHLQYCIHSNPSWHETVVLAFQHYIVMLGTTVLIANTLVSPMGGDPGDKARVIQTILFMSGINTLLQTLIGTRLPTVMGVSFAYVLPVLSIIRDYNNGQFDSEKQRFRHTMRTVQGSLIISSFVNIIIGYGQAWGNLIRIFSPIIVVPVVSVVSLGLFLRGFPLLANCVEIGLPMLILLIITQQYLKHAFSRISMILERYALLVCLAIIWAFAAILTVSGAYNNVSTATKQSCRTDRAFLMSSAPWIRIPYPFQWGTPIFKASHVFGMFGAAIVASAESTGVFFAASRLAGATAPPAHVVSRSIGLQGIGVLLEGIFGSITGNTASVENVGLLGLTRIGSRRVVQVSTFFMIFFSIFGKFGAFFASIPLPIFAGVYCILLGIVVAVGISFIQFTDTNSMRNMYVIGVSLFLSLSIAQYFLANTSRAGYGPVRTAGGWFNDILNTIFASAPLVATILATILDNTLEARHASDDARGIPWWKPFQHRNGDGRNDEFYSMPLRINELMPTRFL | failed
9 | MTDESDALCATEKEIMHATHRALVNSGYAELSISRISDELDKAKSTIYHYYDSKDALLLRFLRFTVDRFEATINTSIGDNPKEDLNHIISTLLPCQLPEEKRQLHSVLVTLSPQALERAVFREQFTEIDTRLATIIEKTVRRGVDADVFRDVDPTHAAEHILATIKGTMYSRLTTNREAATAAAKASLFSYIDSHLIS | failed
10 | MLAALEVAVPALYAVAIVVLTAYGGNLLWLALVHAASERLRDGPVPDPDDLPVPDDDWPVVTVQLPLYNEAEVAHRLIDACVQLDYPRSRLDIQVLDDSTDATTERVARRVAHWQAEGVNITHVRRDDRTGYKAGALANGLQRARGDLIAIFDADFVPRPSFLRRLVPRFFDAPDLGMVQARWGHLNRDDSLLTKVQAFGLDAHFAIEQRVRELAGCFLNFNGTAGVWRRACIEDAGGWAHDTLTEDLDLSYRAQLQGWRLTYVPAAEAPAELPPDMNALRAQQFRWAKGGAETALKLTGRLWRSAQPWRVKLEGTFHLTAHFAFPFILLAALTHAPLLLLKGIGHGPGEVYFAVMGFGLFGFAGFFLAQLFAQRALHPDWRRRLRLFVPFMAGTMGLSLSNTSAVWQALRGTDTAFIRTPKVGSAGGDGWWESRYAIREVPRIVWGELALAVYSTVGLGVVIGLGEWAAVPFQALFALGFALVTASSLRQALTAQQGPTASAPASSPAA | failed
11 | MIAAVAVFALTYVAVAAGRFPYLSLDRPAAALLGAVLMVALGVLTPAEGGAAVNGETLGLLLGMMVLTAYLGEAGFFRWASWRVLRAAGTPRTLLWGVVFTAGALSALLVNDTVCLMMTPLVLRMVDDADLPPLPYLLAVAFGSNAGSAATLTGNPQNMIVGTLSGIGYGRFAAALALPALASLLLVAALLHALFRRALPRGPLAGGRPAAPAVDRALLAKALGALALAVTGFLLGLELAWTALFAAALCMAIAGRAPREALQRVDWPLLVFFAGLFVVVAGIGRAGVTERMYQAVAPLLGADPARQSAVFGLFSIAASQVVSNVPFVILAGEWIPRLADPTLLWLATALCATLAGNLTIVGSVANVIVLELAGSRGRIGFWRFFRVGAVVTAATVAAGLGILLLEHRLGLIG | failed
12 | MDSMKLYDAIIGTVEKHIAPIAAKVGNQPHVRAMRDGFIVAMPFIIVGSFILIFAFPPFAEDTTFTFGRLWLDFATTHFDTIMMPFNMSMGIMTIFVSLGVAYSLAKAYKMDGITSAVLSLMCFLLVAAPAQDGSLAMKHMGGTGIFTAVMCAFFAVELYRFMKKHNITIRMPEQVPPAIARSFEVLLPVLAVFVTLYPLSIFVQTQYDMLIPDAVMAMFKPLISASNTLPAIIGALLMCQLLWFAGIHGAAIVVGLLSPIFLTNISGNIDAFVAGQPVPNIFTQPFWDFYIFIGGSGATLALVLLMSFSRSVHLKSIGRMSAVPGFFQINEPVIFGSPIVMNPTLFIPFVFAPVINATIAYFAVHLGFVGMGVATTPWTTPAIIGASWGSGWTFSPVLLVVGLLILDLLIYFPFFKMFEKQMLEQELPTTKETKQAEQPAGEGVTA | failed
13 | MGNCVFKGNGGSRKLYDKDDSLIKVVTPNGGVMELHPPIFAEFITNEFPGHVIHDSLSLRHSSPPLLHGEELFPGNIYYLLPLSSSAAATAQLDSSDQLSTPYRMSFGKTPIMAALSGGGCGVWKVRLVISPEQLAEILAEDVETEALVESVRTVAKCGGYGCGGGVHSRANSDQLSVTSSFKGKLW | not failed
14 | MILMHPKGLIKRDDIIYLSIFIVVFLIALRNYMISPPYTLGDTTILPSTNPGLYTPSATIQYYLSLLIGENNLIKTLNFLAFIIAPISIYFTLGRKGDFFKRLILPLIFTLNPISISIFYDGNGEGILLVYSLQPLVYYLTYKMLYEVKNRLKYLIYLSIVEVVGQIFFFQMFLFSLFFQLPFILLSIKERKYLFLVYPILADLLGFLSELSWEVYLYIGVVPSVLVSPSNTLVRLGLAYYSTIVSALLFAIVITTAFIYRNKYALATLTSVGILLVIYAILQNFRFDIPVISALLAAITTFQTKVYLLSFGLLDLSLFYLKRTREFIIPLLSLLLIVLLVNTGGLQATTYSIFSFKPQPMPSWYYELYDYLSQNNPNNVYSLATQYQYLQYLPGFSGFIYDTSFIHNLTNPFYGMKYLISTSQMNYTGLRLVKTFGPVLVYYNENFTGLVHYLNGSPVSNYSISDMEIRIYDGNPPFVVSLPYSEYWTSAENYNGFLELTTNISQNSLTSLVHELFFVSLFFLILPFILLILEKTPMKTLIVGR | failed
15 | MSGNVGAGRHADELAIRTVQYRWLEATRKFDRQVLSSLMTDDVVFLTPGRLPFGKEEFLAACEQNDQRVIIEASATFEEIVIVEPMAYTRTHLHIKVTPRSGGAVRELAGHAMSIFRRSMFGEWQLARDANLVVPI | not failed
16 | MDLFPEEIYVFTPDGRIIELPMGATAIDFAYAVHTDVGNSCVGVKVDRKPYPMSRPIDSGQTIEVITSASARPNATWLEHHHHHH | failed
